From CN111875700A (CUSABIO BIOTECH CO LTD, dated 2020)

Biological target: T1, SARS-COV-2病毒N蛋白 (nucleocapsid protein) (SARS-COV-2, UniProt P0DTC9 1-419)
T1 construct: Recombinant N protein; also called 核衣壳蛋白
Test: ELISA of scFv supernatants on coated N protein, detected with anti-E/HRP

B1: 1A6单链抗体 (1A6 scFv) (scFv)
scFv: EVKLKESGAELVKPGASVKLSCTASGFNIKDTYMHWVKQRPGQGLEWIGYINPSTGYTEYNQKFKDKATLTADKSSSTAYMQLSSLTSEDSAVYYCARDALGWYFDVWGAGTLVTVSTGGGGSGGGGSGGGGSDVVMTQSHKFMSTSVGDRVSVTCKASQNVGTNVAWYQQKPGQFPKALIYSASYRYSGVPDRFTGSGSGTDFTLTISNVQSEDLAEYFCQQYNSYPLTFGAGTKLEIK
notes: also called 1A6 single-chain antibody; not shown: E-tag from vector pCANTAB5E (detected with anti-E/HRP)
  binding result: binds
